From patent US20110311550A1 (Scripps Research, published 2011) come the findings set out here.

Experiment [1] addresses T1, HCV E1E2 complex, isolate H77 (genotype 1a) (hepatitis C virus genotype 1a, isolate …, UniProt P27958 192-383; P27958 384-746). As to the kind of experiment: Fab screen after panning on antibody-masked E1E2 (H77).
Experiment [2] addresses T1, HCV E1E2 complex, isolate H77 (genotype …). As to the kind of experiment: ELISA, mAb with E1E2 (H77), then CD81-LEL plate.
The target is the same in experiment [3]. As to the kind of experiment: apparent affinity: half-maximal binding, ELISA on lectin-captured E1E2. (ELISA stands for enzyme-linked immunosorbent assay.)
In experiment [4] the target is HCV E1E2 complex, isolate HCV-1 (genotype 1a), vaccinia-expressed (hepatitis C virus genotype 1a, isolate …, UniProt P26664 192-383; P26664 384-746). Described as above.
The target of experiment [5] is T2, HCV E1E2 complex, isolate H77 (genotype 1a) (hepatitis C virus genotype 1a, isolate …, UniProt P27958 192-383; P27958 384-746).
T2 construct: also called E1E2 (H77); Folded E1E2
Description: competition ELISA on lectin-captured H77 E1E2; competitor: Fab Q2.

The target of experiment [6] is T2, HCV E1E2 complex, isolate H77 (genotype …). Description: competition ELISA on lectin-captured H77 E1E2; competitor: Fab R1.
For experiment [7] the target is unchanged. Description: competition ELISA on lectin-captured H77 E1E2; competitor: Fab Q1.
Experiment [8] shares this target. Description: competition ELISA on lectin-captured H77 E1E2; competitor: Fab P5.
Experiment [9] shares this target. As to the kind of experiment: competition ELISA on lectin-captured H77 E1E2; competitor: Fab S1.
The target is the same in experiment [10]. As to the kind of experiment: competition ELISA on lectin-captured H77 E1E2; competitor: Fab P6.
For experiment [11] the target is unchanged. As to the kind of experiment: competition ELISA on lectin-captured H77 E1E2; competitor: Fab V1.
Experiment [12] shares this target. As to the kind of experiment: competition ELISA on lectin-captured H77 E1E2; competitor: Fab T1.
Experiment [13] shares this target. Description: competition ELISA on lectin-captured H77 E1E2; competitor: Fab U1.
The target of experiment [14] is VSV (control pseudotype virus envelope). As to the kind of experiment: cell-based or functional assay.
Experiment [15] concerns the target E1E2 (Env) of HCV isolate UKN1B12.16 (genotype 1b) on HCVpp (hepatitis C virus, isolate UKN1B12.16). As to the kind of experiment: cell-based or functional assay.
Experiment [16] has as its target E1E2 (Env) of HCV isolate H (genotype 1a) on HCVpp (hepatitis C virus, isolate H). Description: cell-based or functional assay.
For experiment [17], the target named is E1E2 (Env) of HCV isolate UKN2B1.1 (genotype 2b) on HCVpp (hepatitis C virus, isolate UKN2B1.1). As to the kind of experiment: cell-based or functional assay.
The target in experiment [18] is E1E2 (Env) of HCV isolate UKN5.15.7 (genotype 5) on HCVpp (hepatitis C virus, isolate UKN5.15.7). As to the kind of experiment: cell-based or functional assay.
The target of experiment [19] is E1E2 (Env) of HCV isolate OH8 (genotype 1b) on HCVpp (hepatitis C virus, isolate OH8). Description: cell-based or functional assay.
Experiment [20] deals with E1E2 (Env) of HCV isolate J6 (genotype 2a) on HCVpp (hepatitis C virus, isolate J6, UniProt P26660 192-383; P26660 384-750). Description: cell-based or functional assay.
The target of experiment [21] is E1E2 (Env) of HCV isolate UKN2A1.2 (genotype 2a) on HCVpp (hepatitis C virus, isolate UKN2A1.2). Description: cell-based or functional assay.
The target of experiment [22] is E1E2 (Env) of HCV isolate UKN4.21.16 (genotype 4) on HCVpp (hepatitis C virus, isolate UKN4.21.16). As to the kind of experiment: cell-based or functional assay.

Where only a bound is given, the exact number is not on record here.

B1: Fab L7 (Fab, V domains shown)
VH: VQLLEQSGAEVKKPGSSVKVTCKVPGDTFRSYVITWVRQAPGQGLEWLGGILPFFGTTNLAQKFQGRVTLTADESTTTAYMELSSLRAEDTAVYYCAKAGDLAFGGVIAGGVPHLSHFDPWGQGTLVTVSS
VL: ELTQSPGTLSLSPGERATLSCRASQSVPSSYLGWYQQKPGQAPRLLIYGASSRATGIPERFSGSGSGTDFTLTISRLEPEDFAVYYCQQYGSSLSFGQGTKVDLKR
With B1, the binding result in experiment [1] is listed as “binds”.

B2: MAb AR3C (IgG1 from Fab H3) (antibody, V domains shown)
VH: LEQSGAEVKKPGSSVKVSCETSGGTLDNYALNWVRQAPGQGLEWIGGVVPLFGTTRNAQKFQGRVTISDDKSTGTGHMELRSLRSEDTAVYYCVRSVTPRYCGGGFCYGEFDYWGQGTLVTVSS
VL: ELTQSPATLSVSPGERATLSCRASQSVSSNLAWYQQKPGQAPRLLIYGASTRATGIPARFSGSGSGTEFTLTVSRLEPEDSAVYFCQQYYRSPLTFGGGTKVEIKR
For the molecule B2, 2 nM corresponded to half-maximal inhibition in experiment [2] (IC50). Also, the EC50 (usually the concentration that produces a half-maximal response) came out at 2.3 nM in experiment [3] and 1.4 nM in experiment [4].

B3: MAb AR3C (antibody, V domains shown)
VH: LEQSGAEVKKPGSSVKVSCETSGGTLDNYALNWVRQAPGQGLEWIGGVVPLFGTTRNAQKFQGRVTISDDKSTGTGHMELRSLRSEDTAVYYCVRSVTPRYCGGGFCYGEFDYWGQGTLVTVSS
VL: ELTQSPATLSVSPGERATLSCRASQSVSSNLAWYQQKPGQAPRLLIYGASTRATGIPARFSGSGSGTEFTLTVSRLEPEDSAVYFCQQYYRSPLTFGGGTKVEIKR
notes: also called IgG1 of Fab H3
As to B3, the residual binding came out at 75% in [5]; 163% in experiment [6]; 97% in [7]; 117% in experiment [8]; 149% in experiment [9]; 103% in experiment [10]. Also, the results for the residual binding in experiment [11] and in [12] were 82% and 105%, respectively.

B4: MAb AR1B (IgG1 from Fab D1) (antibody, V domains shown)
VH: LESGGGLVQPGGSLRLSCEASGYYFSSFAMSWVRQTPGKGLEWVSSIAGGTLGRTSYRDSVKGRFTISRDNSKNTVFLHMNNLRPEDTAVYYCAKDPLLFAGGPNWFDHWGQGTLVTVSS
VL: not shown
Turning to B4, the figures for the half-maximal effective concentration (EC50) in [3] and in [4] were 0.6 nM and 0.4 nM, respectively.

B5: MAb AR1B (antibody, V domains shown)
VH: LESGGGLVQPGGSLRLSCEASGYYFSSFAMSWVRQTPGKGLEWVSSIAGGTLGRTSYRDSVKGRFTISRDNSKNTVFLHMNNLRPEDTAVYYCAKDPLLFAGGPNWFDHWGQGTLVTVSS
VL: not shown
notes: also called IgG1 of Fab D1
On to B5, for which the residual binding in experiment [13] came to 103%; in [5] it was 96%; in [6], 101%; in experiment [7] it was 97%; in experiment [8] it was 95%; in experiment [9], 101%. For the same molecule, the residual binding was 95% in [10], 102% in experiment [11] and 102% in experiment [12].

B6: MAb AR3B (antibody, V domains shown)
VH: LEQSGPEVKKPGSSVKVSCKDSGDTFNEPVTWVRQAPGQGLEWIGGIIPAFGVTKYAQKFQGRVIISADASTATAYLELSSLRSEDTAVYYCAKVGLRGIVMVGGLAMNWLDPWGQGTQVTVSS
VL: not shown
For B6, the “Neutralizing activity (IC50) on control pseudotype virus” value in experiment [14] was > 50 µg/mL. In addition, the “Neutralizing activity (IC50) on HCVpp” value in [15] was 1 µg/mL; in [16], 1 µg/mL; in experiment [17], 10 µg/mL; in [18], 1 µg/mL; in [19], 5 µg/mL; in experiment [20] it was 10 µg/mL. Further, the entries for the “Neutralizing activity (IC50) on HCVpp” value in experiment [21] and in experiment [22] were 5 µg/mL and 1 µg/mL, respectively.

B7: MAb AR2A (IgG1 from Fab G) (antibody, V domains shown)
VH: LEQSGAEMKKPGASLKVSCKTSGYTFDDYGVTWVRQAPGQGLEWMGWISAYSGNTFYARKFQGRVTMTTDPSTRTAYMELRSLRSDDTAVYFCARDRGLAINGVVFPYFGLDVWGQGTTVTVSS
VL: ELTQSPVSLPVTPGEPASISCRSSQSLLHSNGNHYLDWYLQKPGQSPQLLMYLGSNRASGVPDRFSGSGSGTDFTLKISRVEAEDVGVYYCMQGLQTPWTFGQGTKVEIKR
notes: also called G IgG
On to B7, for which the EC50 came out at 1.6 nM in experiment [3] and 3.1 nM in [4].

B8: MAb AR2A (antibody, V domains shown)
VH: LEQSGAEMKKPGASLKVSCKTSGYTFDDYGVTWVRQAPGQGLEWMGWISAYSGNTFYARKFQGRVTMTTDPSTRTAYMELRSLRSDDTAVYFCARDRGLAINGVVFPYFGLDVWGQGTTVTVSS
VL: ELTQSPVSLPVTPGEPASISCRSSQSLLHSNGNHYLDWYLQKPGQSPQLLMYLGSNRASGVPDRFSGSGSGTDFTLKISRVEAEDVGVYYCMQGLQTPWTFGQGTKVEIKR
notes: also called IgG1 of Fab G
Regarding B8, the residual binding in [13] is 132%; in experiment [5] it was 72%; in [6] it was 75%; in experiment [7], 75%; in [8] it was 73%; in experiment [9] it was 79%. Besides, the residual binding in experiment [10] amounted to 76%; in experiment [11] it was 79%; in experiment [12] it was 93%.

B9: MAb AR1A (IgG1 from Fab B2) (antibody, V domains shown)
VH: LEQSGAEVKKPGSSVKVSCRASGSPYSSYTITWVRQAPGQGLEWMGGIILMTGKANYAQKFQGRVTITADRATATAYMEMSSLTSDDTAIYYCARDPYVYAGDDVRSLSRWGQGTPVIVSS
VL: not shown
notes: also called ARIA
With B9, the 50% inhibitory concentration (IC50) (as a rule, the concentration needed to halve the response being measured) in experiment [2] worked out at 5.7 nM. Further, the EC50 in experiment [3] amounted to 3.8 nM; in [4] it was 2.6 nM.

B10: MAb AR1A (antibody, V domains shown)
VH: LEQSGAEVKKPGSSVKVSCRASGSPYSSYTITWVRQAPGQGLEWMGGIILMTGKANYAQKFQGRVTITADRATATAYMEMSSLTSDDTAIYYCARDPYVYAGDDVRSLSRWGQGTPVIVSS
VL: not shown
notes: also called IgG1 of Fab B2
In the case of B10, the residual binding in experiment [13] amounted to 55%; in [5], 78%; in [6], 100%; in experiment [7], 79%; in [8], 87%; in experiment [9] it was 69%. Moreover, the residual binding was determined as 82% in experiment [10], 58% in experiment [11] and 80% in experiment [12].

B11: Fab B7 (Fab, V domains shown)
VH: VQLLEQSGAEVKKPGSSVKVSCRASGSPYSSYTITWVRQAPGQGLEWMGGIILMTGKANYAQKFQGRVTITADRATATAYMEMSSLTSDDTAIYYCARDPYVYAGDDVWSLSRWGQGTPVIVSS
VL: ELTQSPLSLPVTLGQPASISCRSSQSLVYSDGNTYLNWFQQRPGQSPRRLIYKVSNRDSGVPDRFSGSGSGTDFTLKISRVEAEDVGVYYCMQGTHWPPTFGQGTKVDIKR
On to B11, for which the binding result in experiment [1] was “binds”.
